In PMC11098746:
pKd: −log10 of the molar value. Values joined by “and” are separate entries in the source; they are usually repeats but may differ in a detail not shown here. Equal values may be shown once.

What was measured:
[1] = target: Pf34 bait (P. falciparum Pf34 ectodomain, human Fc-tagged dimeric bait) (P. falciparum)
[2] = target: Pf34 bait (P. falciparum Pf34 ectodomain, human Fc-tagged dimeric bait) (P. falciparum); assay: SPR
[3] = target: Pf34 bait (Pf34 ectodomain with CD4d3+4, human Fc and C-tag) (Plasmodium falciparum); assay: SPR
[4] = target: Izumo (Mus musculus) (UniProt Q9D9J7); settings: cited from earlier work
Chain of Izumo (Mus musculus) (Q9D9J7 22-319): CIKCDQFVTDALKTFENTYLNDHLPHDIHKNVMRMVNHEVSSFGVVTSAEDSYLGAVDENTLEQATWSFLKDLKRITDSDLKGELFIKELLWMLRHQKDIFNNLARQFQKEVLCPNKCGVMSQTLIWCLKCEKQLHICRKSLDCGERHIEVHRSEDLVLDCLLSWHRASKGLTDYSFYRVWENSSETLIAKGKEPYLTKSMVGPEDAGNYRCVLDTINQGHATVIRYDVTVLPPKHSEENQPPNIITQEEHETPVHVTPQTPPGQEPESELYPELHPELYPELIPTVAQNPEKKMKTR

[5] = target: PfRON6 C-terminal bait (PfRON6 residues 537-950 with CD4d3+4, human Fc and C-tag) (Plasmodium falciparum); assay: SPR

Chain of Juno (Q9EQF4 20-222): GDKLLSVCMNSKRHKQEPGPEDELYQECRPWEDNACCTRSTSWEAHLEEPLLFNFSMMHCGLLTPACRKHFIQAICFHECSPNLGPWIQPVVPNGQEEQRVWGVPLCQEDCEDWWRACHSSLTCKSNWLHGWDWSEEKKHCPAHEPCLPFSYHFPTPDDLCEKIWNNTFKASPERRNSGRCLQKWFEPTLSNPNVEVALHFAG

“FGFR4 prey (human fibroblast growth factor receptor 4 ectodomain, pentameric 5xNanoLuc-tagged prey) (from UniProt P22455 22-369)” gave an inhibition of NF54 sporozoite invasion of primary human hepatocytes (ISI assay) by LD1 mAb, up to 25 µg/mL [1] of 20% and an inhibition of NF54 sporozoite invasion of primary human hepatocytes (ISI assay) by anti-FGFR4 rabbit pAbs, up to 2 mg/mL [1] of 20%.

With “FGFR4-CD4-Bio-His (purified monomeric FGFR4 ectodomain) (from UniProt P22455 22-369) (receptor)” the pKd [2] was 4.34 and 4.40 and the t1/2 [2] was < 1 s and 0.4 s.

For “FGFR4-CD4-Bio-His (purified monomeric human FGFR4 ectodomain) (from UniProt P22455 22-369) (receptor)”, the pKd [3] was 4.33 and 4.85 and 4.51 and the kon [3] was 16000 M⁻¹ s⁻¹ and 44000 M⁻¹ s⁻¹ and 30000 M⁻¹ s⁻¹.

For Juno (from UniProt Q9EQF4), the pKd [4] is given as 4.92.

“Pf34-CD4-Bio-His (purified monomeric Pf34) (natural protein)” showed a pKd [5] of 5.54, a koff [5] of 0.0015 s⁻¹ and a kon [5] of 520 M⁻¹ s⁻¹.
